From US20260226168A1 (CHIA TAI TIANQING PHARMACEUTICAL GROUP, published 2026) come the findings set out here.

B1: GC35 (bispecific antibody, human IgG1, kappa, L234A L235A)
heavy: EVQLVQSGAEVVKPGASVKMSCKASGYTFTNYVMHWVKQAPGQGLEWMGYFNPYNDGTNYNEKFKGRVTLTSDTSANTAYMELSSLRSEDTAVYYCARGGVRRYFDVWGQGTTVTVSSASTKGPSVFPLAPSSKSTSGGTAALGCLVKDYFPEPVTVSWNSGALTSGVHTFPAVLQSSGLYSLSSVVTVPSSSLGTQTYICNVNHKPSNTKVDKKVEPKSCDKTHTCPPCPAPEAAGGPSVFLFPPKPKDTLMISRTPEVTCVVVDVSHEDPEVKFNWYVDGVEVHNAKTKPREEQYNSTYRVVSVLTVLHQDWLNGKEYKCKVSNKALAAPIEKTISKAKGQPREPQVCTLPPSREEMTKNQVSLSCAVKGFYPSDIAVEWESNGQPENNYKTTPPVLDSDGSFFLVSKLTVDKSRWQQGNVFSCSVMHEALHNHYTQKSLSLSPGK
light: DIQMTQSPSSLSASVGDRVTITCRASQDIGSNLNWLQLGPGGAIKRLIYATFSLDSGVPSRFSGSRSGSDYTLTISSLQPEDFVDYYCQQYANFPPTFGGGTKVEIKRTVAAPSVFIFPPSDEQLKSGTASVVCLLNNFYPREAKVQWKVDNALQSGNSQESVTEQDSKDSTYSLSSTLTLSKADYEKHKVYACEVTHQGLSSPVTKSFNRGEC
scFv: ELVVTQEPSLTTSPGGTVTLTCRSSTGAVTTSNYANWVQQKPGQAPRGLIGGTNKRAPGTPARFSGSLLGGKAALTITGVQPEDEAEYYCALWYSNLWVFGGGTKLTVLGGGGSGGGGSGGGGSEVQLVESGGGLVQPGGSLRLSCAASGFTFNTYAMNWVRQAPGKGLEWVARIRSKYNNYATYYADSVKDRFTISRDDSKNTAYLQMNNLKTEDTAMYYCVRHGNFGNSYVSWFAYWGQGTLVTVSSGEPKSSDKTHTCPPCPAPEAAGGPSVFLFPPKPKDTLMISRTPEVTCVVVDVSHEDPEVKFNWYVDGVEVHNAKTKPREEQYNSTYRVVSVLTVLHQDWLNGKEYKCKVSNKALAAPIEKTISKAKGQPREPQVYTLPPCREEMTKNQVSLWCLVKGFYPSDIAVEWESNGQPENNYKTTPPVLDSDGSFFLYSKLTVDKSRWQQGNVFSCSVMHEALHNRYTQKSLSLSPGK
notes: also called anti-GPRC5D/anti-CD3 bispecific antibody GC35
B2: GC39 (bispecific antibody, human IgG1, kappa, L234A L235A)
heavy: EVQLVESGGGLVQPGGSRRVSCAASGFTFSSFGMHWVRQAPGKGLEWVAYISRGSSTIYYADTVKGRFTISRDNAKNSLYLQMNSLRAEDTAVYYCARSGYGSSSYYFDYWGQGTTVTVSSASTKGPSVFPLAPSSKSTSGGTAALGCLVKDYFPEPVTVSWNSGALTSGVHTFPAVLQSSGLYSLSSVVTVPSSSLGTQTYICNVNHKPSNTKVDKKVEPKSCDKTHTCPPCPAPEAAGGPSVFLFPPKPKDTLMISRTPEVTCVVVDVSHEDPEVKFNWYVDGVEVHNAKTKPREEQYNSTYRVVSVLTVLHQDWLNGKEYKCKVSNKALAAPIEKTISKAKGQPREPQVCTLPPSREEMTKNQVSLSCAVKGFYPSDIAVEWESNGQPENNYKTTPPVLDSDGSFFLVSKLTVDKSRWQQGNVFSCSVMHEALHNHYTQKSLSLSPGK
light: EIVLTQSPATLSASPGERATMSCRASSSIRSSYLHWYQQKPGQSPRLWIYSTSNLASGVPARFSGSGSGTDYTLTISSLEPEDAAVYYCQQFSGYPLTFGGGTKVEIKRTVAAPSVFIFPPSDEQLKSGTASVVCLLNNFYPREAKVQWKVDNALQSGNSQESVTEQDSKDSTYSLSSTLTLSKADYEKHKVYACEVTHQGLSSPVTKSFNRGEC
scFv: B1 scFv
notes: also called anti-GPRC5D/anti-CD3 bispecific antibody GC39
B3: Talquetamab (bispecific antibody, human IgG4 S228P, kappa, lambda, F234A L235A)
heavy 1: not shown
light 1: DIQMTQSPSSLSASVGDRVTITCKASQNVATHVGWYQQKPGKAPKRLIYSASYRYSGVPSRFSGSGSGTEFTLTISNLQPEDFATYYCQQYNRYPYTFGQGTKLEIKRTVAAPSVFIFPPSDEQLKSGTASVVCLLNNFYPREAKVQWKVDNALQSGNSQESVTEQDSKDSTYSLSSTLTLSKADYEKHKVYACEVTHQGLSSPVTKSFNRGEC
heavy 2: EVQLVESGGGLVQPGGSLRLSCAASGFTFNTYAMNWVRQAPGKGLEWVARIRSKYNNYATYYAASVKGRFTISRDDSKNSLYLQMNSLKTEDTAVYYCARHGNFGNSYVSWFAYWGQGTLVTVSSASTKGPSVFPLAPCSRSTSESTAALGCLVKDYFPEPVTVSWNSGALTSGVHTFPAVLQSSGLYSLSSVVTVPSSSLGTKTYTCNVDHKPSNTKVDKRVESKYGPPCPPCPAPEAAGGPSVFLFPPKPKDTLMISRTPEVTCVVVDVSQEDPEVQFNWYVDGVEVHNAKTKPREEQFNSTYRVVSVLTVLHQDWLNGKEYKCKVSNKGLPSSIEKTISKAKGQPREPQVYTLPPSQEEMTKNQVSLTCLVKGFYPSDIAVEWESNGQPENNYKTTPPVLDSDGSFLLYSKLTVDKSRWQEGNVFSCSVMHEALHNHYTQKSLSLSLGK
light 2: QTVVTQEPSLTVSPGGTVTLTCRSSTGAVTTSNYANWVQQKPGQAPRGLIGGTNKRAPGTPARFSGSLLGGKAALTLSGVQPEDEAEYYCALWYSNLWVFGGGTKLTVLGQPKAAPSVTLFPPSSEELQANKATLVCLISDFYPGAVTVAWKADSSPVKAGVETTTPSKQSNNKYAASSYLSLTPEQWKSHRSYSCQVTHEGSTVEKTVAPTECS
notes: Four polypeptide chains (anti-GPRC5D-HC/LC, anti-CD3-HC/LC); made in house by in vitro assembly of the two parental monoclonal antibodies with 2-MEA; also called benchmark; BM

In this test the target is T1, T cell surface CD3 (human, UniProt P07766 23-207).
T1 construct: whole, on cells
T1 sequence (P07766 23-207): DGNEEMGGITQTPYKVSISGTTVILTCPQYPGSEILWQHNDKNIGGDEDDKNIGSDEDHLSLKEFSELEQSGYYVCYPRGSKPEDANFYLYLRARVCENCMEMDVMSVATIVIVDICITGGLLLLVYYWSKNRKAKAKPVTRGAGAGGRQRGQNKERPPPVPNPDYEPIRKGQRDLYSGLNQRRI
Nature of the test: flow cytometry on human CD3+ T cells. As to the method:
Human PBMCs (peripheral blood mononuclear cells) were sorted for CD3⁺ T cells using CD3 magnetic beads (Miltenyi, Cat. No. 130-097-043). The cryopreserved PBMCs were thawed, and washed by centrifugation twice for counting. The running buffer (MACS, Cat. No. 130-091-221) was added at a ratio of 80 μL per 10⁷ cells, and the CD3 magnetic beads were added at a ratio of 20 μL CD3 magnetic beads per 10⁷ cells. The mixture was mixed well and incubated at 4° C. for 15 min. The running buffer was added at a ratio of 1-2 mL per 10⁷ cells for washing the cells. The mixture was centrifuged, the supernatant was discarded, and 500 μL of running buffer was added to resuspend the cell pellet. The LS sorting column (Miltenyi, Cat. No. 130-042-401) was placed on the MidiMACS Starting Kit (LS) magnetic rack (Miltenyi, Cat. No. 130-091-051). After rinsing, the cell suspension was added and washed thrice. The LS sorting column was removed from the magnetic rack and placed on a clean centrifuge tube and 5 mL buffer was added to collect the sorted CD3⁺ T cells.
After counting, the CD3⁺ T cells were adjusted to a cell density of 1×10⁶-2×10⁶ cells/mL using running buffer, and seeded in a 96-well U-bottom cell culture plate (Costar, Cat. No. 3799) at 50 μL per well. Different concentrations of the anti-GPRC5D/anti-CD3 bispecific antibodies were prepared using running buffer. The highest concentration of the antibodies was 200 nM, and the antibodies were serially diluted 5-fold to obtain a total of 10 concentration gradients. The antibodies at different concentrations were added to the 96-well cell culture plate described above at 50 μL per well, mixed well and incubated at 4° C. for 1 h. The cells were washed with pre-cooled running buffer (MACS, Cat. No. 130-091-221), and then the supernatant was discarded. Pre-cooled PE-conjugated goat anti-human IgG Fcγ antibody (Jackson Immuno Research, Cat. No. 109-116-170) was added, and the cells were resuspended at 100 μL/well. The mixture was mixed well and incubated at 4° C. for 30 min. […]
(In general: A flow cytometer gives signals particle by particle.)
Take B1: the “Top(MFI)” value was 54700.
As to B2, the “Top(MFI)” value was determined as 38000.
To B3 belongs 155000.
